The values that follow come from PMC8674125, “Analysis of Il36a induction by C/EBPβ via a half-CRE•C/EBP element in murine macrophages in dependence of its CpG methylation level”.

For this data set, the target named is C/EBPβ bZIP domain (mouse, UniProt P28033 221-296). The data set is described as follows: fluorescence polarization; FP: 5 nM DNA, 20 mM Tris-HCl pH 7.5, 150 mM NaCl, 5% glycerol, 0.5 mM TCEP, 0.1 mg/ml BSA, 30 min, temperature not stated; EMSA conditions as in earlier work, not given. The note with it: protein: recombinant; tags: N-terminal 6xHis (pET-45b); chain copies: 2; label: 5'-FAM on strand 1; blunt. (In fluorescence polarisation assays a small probe gives low polarisation when free and higher when bound to something large.)
C/EBPβ bZIP domain, sequence (P28033 221-296): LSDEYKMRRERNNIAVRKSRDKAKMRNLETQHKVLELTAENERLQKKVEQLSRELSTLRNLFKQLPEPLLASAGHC

B1: FP_CREB (unmethylated half-CRE•C/EBP Il36a) (dsDNA)
DNA 1: CATCTTACGTCACCT
DNA 2: AGGTGACGTAAGATG
A word on the Kd: it is the free concentration of one partner at which half of the binding sites on the other are occupied at equilibrium, for simple one-to-one binding. Turning to B1, the Kd stood at 80 ± 30 nM.

B2: FP_CREBmeth (methylated half-CRE•C/EBP Il36a) (dsDNA)
DNA 1: CATCTTACGTCACCT
DNA 2: AGGTGACGTAAGATG
modifications: 5-methyl-C (mC) at position 8 of strand 1 and position 7 of strand 2
B2: the Kd is 100 ± 30 nM.
